The target in assay [1] is Rab6a GTPase (rat hepatocytes) (rat (endogenous in primary hepatocytes)) (UniProt Q9WVB1). The assay can be described thus: proximity ligation; Duolink in situ PLA in VA-13 cells treated with 35 mM EtOH for 72 h and hepatocytes from EtOH-fed rats; mouse anti-Rab6a + rabbit anti-NMIIA-P-S1943; cells with more than one red spot counted.
Assay [2] shares this target. The assay can be described thus: proximity ligation; Duolink in situ PLA in control VA-13 cells and hepatocytes from control rats; mouse anti-giantin + rabbit anti-Rab6a, or mouse anti-Rab6a + rabbit anti-NMIIA-P-S1943; cells with more than one red spot counted.
Assay [3] concerns the target Rab6a GTPase (human (endogenous in VA-13, HepG2-derived)) (UniProt P20340). The description is as above.

The text below walks through data of PMC4989220.

Sequence of Rab6a GTPase (rat hepatocytes) (rat (endogenous in primary hepatocytes)) (Q9WVB1 whole entry): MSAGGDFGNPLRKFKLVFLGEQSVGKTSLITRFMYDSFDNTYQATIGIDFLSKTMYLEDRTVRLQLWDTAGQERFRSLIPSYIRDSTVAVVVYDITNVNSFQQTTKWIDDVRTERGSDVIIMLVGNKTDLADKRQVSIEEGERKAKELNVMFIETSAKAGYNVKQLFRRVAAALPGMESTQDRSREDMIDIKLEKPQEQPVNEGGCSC
Sequence of non-muscle Myosin IIA heavy chain phosphorylated at S1943 (rat hepatocytes) (Q62812 2-1961): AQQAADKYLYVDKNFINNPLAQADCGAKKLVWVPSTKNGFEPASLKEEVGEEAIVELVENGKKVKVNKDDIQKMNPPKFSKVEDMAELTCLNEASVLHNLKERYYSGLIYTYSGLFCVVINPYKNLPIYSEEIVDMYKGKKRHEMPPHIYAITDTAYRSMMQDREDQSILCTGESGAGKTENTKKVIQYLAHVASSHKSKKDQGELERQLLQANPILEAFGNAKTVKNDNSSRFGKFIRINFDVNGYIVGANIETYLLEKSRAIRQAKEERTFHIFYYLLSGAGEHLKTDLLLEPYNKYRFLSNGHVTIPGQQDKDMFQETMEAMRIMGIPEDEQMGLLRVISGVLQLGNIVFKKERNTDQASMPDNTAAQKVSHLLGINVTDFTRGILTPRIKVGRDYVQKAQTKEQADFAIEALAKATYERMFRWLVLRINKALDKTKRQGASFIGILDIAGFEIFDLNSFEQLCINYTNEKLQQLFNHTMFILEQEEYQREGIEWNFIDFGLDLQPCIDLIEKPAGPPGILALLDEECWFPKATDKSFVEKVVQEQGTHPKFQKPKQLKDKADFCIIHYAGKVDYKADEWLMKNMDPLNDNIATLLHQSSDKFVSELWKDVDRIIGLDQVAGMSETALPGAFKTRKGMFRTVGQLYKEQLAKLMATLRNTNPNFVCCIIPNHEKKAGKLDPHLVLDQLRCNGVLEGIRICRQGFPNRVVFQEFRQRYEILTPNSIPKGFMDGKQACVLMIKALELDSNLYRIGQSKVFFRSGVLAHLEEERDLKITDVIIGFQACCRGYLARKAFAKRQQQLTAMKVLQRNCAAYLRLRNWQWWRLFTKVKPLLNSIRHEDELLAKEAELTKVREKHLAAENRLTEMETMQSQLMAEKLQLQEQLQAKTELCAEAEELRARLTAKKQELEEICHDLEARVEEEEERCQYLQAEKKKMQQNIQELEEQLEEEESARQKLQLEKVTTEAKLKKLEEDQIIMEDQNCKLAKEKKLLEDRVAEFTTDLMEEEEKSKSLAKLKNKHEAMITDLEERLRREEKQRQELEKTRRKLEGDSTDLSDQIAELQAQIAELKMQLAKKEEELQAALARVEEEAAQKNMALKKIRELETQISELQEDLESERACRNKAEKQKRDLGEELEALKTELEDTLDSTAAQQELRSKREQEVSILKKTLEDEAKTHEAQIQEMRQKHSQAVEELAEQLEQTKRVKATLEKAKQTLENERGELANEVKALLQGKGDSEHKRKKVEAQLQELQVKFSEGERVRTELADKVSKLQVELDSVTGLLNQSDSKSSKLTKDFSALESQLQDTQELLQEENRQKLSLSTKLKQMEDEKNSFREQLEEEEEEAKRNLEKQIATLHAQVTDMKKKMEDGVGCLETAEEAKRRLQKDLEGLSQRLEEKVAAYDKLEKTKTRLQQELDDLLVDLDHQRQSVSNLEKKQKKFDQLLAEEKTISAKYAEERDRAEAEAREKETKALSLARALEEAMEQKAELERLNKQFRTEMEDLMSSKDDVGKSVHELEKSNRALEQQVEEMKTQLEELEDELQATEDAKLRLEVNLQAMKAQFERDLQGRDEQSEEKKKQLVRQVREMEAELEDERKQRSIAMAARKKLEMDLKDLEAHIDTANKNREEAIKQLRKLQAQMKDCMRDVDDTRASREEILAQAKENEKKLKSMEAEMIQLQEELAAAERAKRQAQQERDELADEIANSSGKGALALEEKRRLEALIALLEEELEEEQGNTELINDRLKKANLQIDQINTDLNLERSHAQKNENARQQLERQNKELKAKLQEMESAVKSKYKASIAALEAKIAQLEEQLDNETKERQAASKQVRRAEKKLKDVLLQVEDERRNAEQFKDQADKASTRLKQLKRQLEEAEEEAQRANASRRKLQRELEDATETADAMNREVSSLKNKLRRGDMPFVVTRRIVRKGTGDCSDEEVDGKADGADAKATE
Sequence of Rab6a GTPase (human (endogenous in VA-13, HepG2-derived)) (P20340 whole entry): as the sequence (Q9WVB1 whole entry) above, with A3T, N202S counted along it

With “non-muscle Myosin IIA heavy chain phosphorylated at S1943 (rat hepatocytes) (from UniProt Q62812 1-1961) (natural protein)”, in assay [1], the percent of cells with PLA-positive puncta is 86%.

In the case of “giantin (rat hepatocytes) (natural protein)”, in assay [2], the percent of cells with more than one PLA spot was 83%.

Turning to giantin, Q14789 1-3259, the percent of cells with more than one PLA spot in assay [3] is 78%.
